Entries after “also recorded” stand apart in the source; their conditions may differ.
How the values were obtained:
[1] = tested on: collagen type IV treated with N-Glycosidase F; test: Adhesion to N-glycosidase F treated collagen type IV; format: binding, human; details: 0.5 U N-glycosidase F, 3 hours; data not shown
Experimental: Figure 3 Adhesion of Als5 to collagen type IV involves recognition of carbohydrate residues on collagen type IV but is not solely determined by it. (A) Adhesion of GST-Als5, GST-Als5-SS to collagen type IV. Different amounts of collagen type IV, as shown in the figure, were immobilized in 96-well flat bottomed ELISA plates and incubated with the proteins (0.09 mg/ml) of interest at 37 °C for 1 hour. The adhesion assay was carried out as described in Experimental Procedures. Adhesion of the proteins to collagen type IV was correlated to the absorbance at 650 nm observed by the oxidation of TMB, the substrate of HRP. […] Buffer controls (OD 650nm of 0.126 ± 0.003), corresponding to no immobilized collagen, have been subtracted in all cases. […] The data presented is mean of 3 independent experiments done in duplicates. […] (B) Treatment of collagen type IV with N-Glycosidase F results in decrease in adherence of GST-Als5. […] Adherence to collagen type IV was detected as already described. […]
Supplementary file pone.0035305.s005.tif: Figure S5 Treatment of collagen type IV with N-Glycosidase F results in decrease in adherence of GST-Als5. […] GST-Als5 was incubated before the adherence was detected by using primary anti-GST antibody and anti-rabbit HRP-conjugated secondary antibody and is represented in this figure by the Absorbance at 650nm observed upon oxidation of the specific substrate of HRP. […]

[2] = Aggregation by transmission electron microscopy; format: physicochemical; details: 37 °C
Experimental: Transmission Electron Microscopy (TEM)
TEM studies were carried out on a JEOL 2100F. The proteins (0.09 mg/ml) were incubated at 37 °C for 2 weeks prior to the measurements. The proteins were spotted on a carbon-coated copper grid and positively stained with 2% uranyl acetate. The sample was then dried and examined by TEM using a 210 kV accelerating voltage.
Figure 5 Transmission electron microscope images showing aggregation by GST-Als5. […] The scale bar in each panel represents 100 nm. Left panel: 10,000X magnification. Right panel: 25,000X magnification.
(A) Prediction of β-aggregation potential for the GPI anchor attachment signal sequence (SS). The prediction of β-aggregation potential for the SS was done using TANGO (residues 1328–1347). Also shown is the propensity for α-helix, β-turn and β-sheet formation in the unfolded polypeptide chain as predicted by TANGO. […] (B). Transmission electron microscope images showing aggregation by SS and SS in the presence of GST-Als5. The samples, SS (40.0 µM), GST-Als5 (0.4 µM) and GST-Als5 (0.4 µM) + SS (40.0 µM) were incubated as 37 °C for two days before TEM images were recorded.

human collagen type IV = test: Adhesion assay to immobilised collagen type IV; format: binding; details: 0.09 mg/ml protein, 37°C 1 hour, anti-GST/HRP, TMB OD650nm; mean of 3 independent experiments in duplicates
Experimental: Freshly purified GST-Als5 and GST-Als5-SS were checked for their ability to bind to human collagen type IV, following a slightly modified method to that reported. Briefly, a 96-well flat bottom plate was coated with different amounts of collagen type IV and incubated overnight at 4°C. The plate was then washed thrice with PBS and twice with elution buffer. […] The wells were blocked for 1 hour with 5% skimmed milk in PBS and then washed 5 times with wash buffer (1% skimmed milk, 0.025% Tween-20 in PBS). Thereafter, 200 µl/well of primary anti-GST antibody (diluted 1∶1,000) was added. After incubation at 37°C for 1 hour, the wells were washed five times with wash buffer and incubated at 37°C with HRP-conjugated secondary antibody (200 µl/well; diluted 1∶20,000) for 1 hour. The wells were rinsed five times with wash buffer, 100 µl of freshly prepared tetramethylbenzidine solution was added to each well and incubated at 37°C for 1 hour. OD650nm was monitored on a plate reader (Spectramax M2). […]
Figure 3 Adhesion of Als5 to collagen type IV involves recognition of carbohydrate residues on collagen type IV but is not solely determined by it. […] Adhesion of the proteins to collagen type IV was correlated to the absorbance at 650 nm observed by the oxidation of TMB, the substrate of HRP. […] Adherence to collagen type IV was detected as already described. […]

B1: GST-Als5: GST fusion of full length Als5 minus the GPI anchor attachment signal sequence, expressed in E. coli (protein)
chain: ITGIFNSIDSLTWSNAGNYAFKGPGYPTWNAVLGWSLDGTSANPGDTFILNMPCVFKFTASQKSVDLTADGVKYATCQFYSGEEFTTFSSLKCTVNNNLRSSIKALGTVTLPIAFNVGGTGSSVDLEDSKCFTAGTNTVTFNDGSKKLSIAVNFEKSTVDQSGYLTTSRFMPSLNKIATLYVAPQCENGYTSGTMGFSTSYGDVAIDCSNVHIGISKGVNDWNHPVTSESFSYTKSCSSFGISITYQNVPAGYRPFIDAYISPSDNNQYQLSYKNDYTCVDDYWQHAPFTLKWTGYKNSDAGSNGIVIVATTRTVTDSTTAVTTLPFNPSVDKTKTIEILQPIPTTTITTSYVGVTTSYSTKTAPIGETATVIVDVPYHTTTTVTSEWTGTITTTTTRTNPTDSIDTVVVQVPLPNPTTTTTQFWSESFTSTTTITNSLKGTDSVIVREPHNPTVTTTEFWSESYATTETITNGPEGTDSVIVREPHNPTVTTTEFWSESYATTETVTNKPEGTDSVIIKEPHNPTVTTTEFWSESYATTETITTGPLGTDSIVIHDPLEESSSTTAIESSDSNISSSAQESSSSVEQSSSIVGLSSSSDIPLSSDMPSSSSTGLTSSESSTVSSYDSDSSSSSELSTFSSSESYSSSISDTTNFWDSSSSDLESTSITWSSSIDAQSSQSVQSVSNSISTSQETTSSSGEESNTSVTDILVSSDASSILNSDISSYYPSSTISLSDDFPHTIAGEPDSRSSSSIASTVEISSDLVSLTSDPTSSFDSSSSLNSDSSSSPFSDESDISASSSFSTLVAPSFSLSSSSSLSLTYPHYVNSTTYHASESESSSVASPSMASESANDDTHTLSESTDTTSSIGTDSSTVTFCRRDNGDGCIVTGMPSSSIDSEQTSDVTTTSSFVASSTPTSAEQSITDNPNIDSSQTSASSSTKSSVSVSDTVVNSISLSETSTLSSDDSTSSDTSISSTTNSDTGNINAGSSHTSTASIKESSIQKTGVMLSSSYLSTKLSSTSDITTELITTELITTELTTIEDNEPNTFTSTPSSHSEIFSSDNSVLSKQVDRESTIKTSPTTDVTTVSSLSVHSTEASTATLGENSFSNVASTPSNIATSLRSTSSSSNHATESSGTVKSEASAEAIPSPPTSTDNRLSYSTEEAKGITYANSGSTNNLITESQVAAPTDSTSVLIENPVVTSTFDDNSSAAVDQPSKTKSIEESIMNPDSTNETNNGFIATLSQAQVPNSLIHSESISTTMAKTTDASINGDSAASNSQPTTLIQQVATSSYNQPLITTYAGSSS
modifications: left off: GST, N-terminal, kept
effect of longer deglycosylation on adhesion (in words) [1]: did not further reduce the adhesion | aggregation (in words) ([2]; 2 weeks, 0.4 µM / 0.09 mg/ml (method)): significantly higher amount of aggregation as compared to either GST-Als5-SS or GST alone; also recorded: showed significant amount of aggregation | aggregation (in words) ([2]; 2 days, SS 40.0 µM, GST-Als5 0.4 µM, alone or together): aggregates both in the absence as well as in the presence of SS | adhesion to collagen type IV (in words) (human collagen type IV): greater adherence to collagen type IV as compared to GST-Als5-SS

— PMC3324464, “The GPI Anchor Signal Sequence Dictates the Folding and Functionality of the Als5 Adhesin from Candida albicans” (PLoS ONE, 2012)
